Laboratory results from US20250361312A1 (INVOX PHARMA, published 2025).

Experiments:
Assay in all cases: SPR (Biacore T200), receptor on CM5 chip
human NGFR = target: T1, human NGFR (human, UniProt P08138 29-250, limits assumed)
T1 construct: Amine-coupled to a CM5 chip
T1 sequence (looked up): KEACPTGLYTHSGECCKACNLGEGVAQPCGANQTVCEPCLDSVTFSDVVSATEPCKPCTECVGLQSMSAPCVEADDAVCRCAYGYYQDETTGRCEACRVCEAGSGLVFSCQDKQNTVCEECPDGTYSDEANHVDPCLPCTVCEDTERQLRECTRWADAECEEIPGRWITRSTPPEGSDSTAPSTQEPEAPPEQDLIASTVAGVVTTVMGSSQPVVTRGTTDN

human TNFRI = target: T2, human TNFRI (human, UniProt P19438 30-211, limits assumed)
T2 construct: Amine-coupled to a CM5 chip
T2 sequence (looked up): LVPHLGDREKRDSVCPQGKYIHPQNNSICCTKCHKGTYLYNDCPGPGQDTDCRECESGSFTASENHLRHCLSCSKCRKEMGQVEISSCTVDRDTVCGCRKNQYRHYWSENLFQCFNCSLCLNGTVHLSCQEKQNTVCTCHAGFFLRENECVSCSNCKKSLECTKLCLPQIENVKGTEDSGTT

human CD40 = target: T3, human CD40 (human, UniProt P25942 21-193, limits assumed)
T3 construct: Amine-coupled to a CM5 chip

human TNFRII = target: T4, human TNFRII (human, UniProt P20333 23-257, limits assumed)
T4 construct: Amine-coupled to a CM5 chip
T4 sequence (looked up): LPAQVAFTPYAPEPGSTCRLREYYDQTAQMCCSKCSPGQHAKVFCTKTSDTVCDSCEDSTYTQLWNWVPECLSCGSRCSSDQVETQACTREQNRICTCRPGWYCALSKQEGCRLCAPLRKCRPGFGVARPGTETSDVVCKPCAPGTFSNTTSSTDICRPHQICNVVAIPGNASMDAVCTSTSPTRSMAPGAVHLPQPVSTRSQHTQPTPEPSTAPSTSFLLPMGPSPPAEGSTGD

human CD137 = target: T5, human CD137 (human, UniProt Q07011 24-186, limits assumed)
T5 construct: Amine-coupled to a CM5 chip; also called 4-1BB

Measured: binding result

T3 sequence (P25942 21-193 limits assumed): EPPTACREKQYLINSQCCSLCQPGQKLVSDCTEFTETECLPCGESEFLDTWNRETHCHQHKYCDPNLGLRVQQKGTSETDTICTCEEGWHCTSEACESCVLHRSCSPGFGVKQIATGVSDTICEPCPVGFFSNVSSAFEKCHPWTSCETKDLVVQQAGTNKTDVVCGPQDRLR

B1: FS20-22-49AA/4420 (bispecific antibody, human IgG1, kappa, L234A L235A)
heavy: EVKLDETGGGLVQPGRPMKLSCVASGFTFSDYWMNWVRQSPEKGLEWVAQIRNKPYNYETYYSDSVKGRFTISRDDSKSSVYLQMNNLRVEDMGIYYCTGSYYGMDYWGQGTSVTVSSASTKGPSVFPLAPSSKSTSGGTAALGCLVKDYFPEPVTVSWNSGALTSGVHTFPAVLQSSGLYSLSSVVTVPSSSLGTQTYICNVNHKPSNTKVDKKVEPKSCDKTHTCPPCPAPEAAGGPSVFLFPPKPKDTLMISRTPEVTCVVVDVSHEDPEVKFNWYVDGVEVHNAKTKPREEQYNSTYRVVSVLTVLHQDWLNGKEYKCKVSNKALPAPIEKTISKAKGQPREPQVYTLPPSRDEYWDQEVSLTCLVKGFYPSDIAVEWESNGDEQFAYKTTPPVLDSDGSFFLYSKLTVDQYRWNPADYFSCSVMHEALHNHYTQKSLSLSPG
light: DVVMTQTPLSLPVSLGDQASISCRSSQSLVHSNGNTYLRWYLQKPGQSPKVLIYKVSNRFSGVPDRFSGSGSGTDFTLKISRVEAEDLGVYFCSQSTHVPWTFGGGTKLEIKRTVAAPSVFIFPPSDEQLKSGTASVVCLLNNFYPREAKVQWKVDNALQSGNSQESVTEQDSKDSTYSLSSTLTLSKADYEKHKVYACEVTHQGLSSPVTKSFNRGEC
notes: Human IgG1 with anti-FITC 4420 Fab and LALA; The OX40 site is in the CH3 domain; also called FS20-22-49 Fcab in mock (4420 LALA) mAb^2 format; FS20-22-49/4420 (LALA)
no binding (tested: 1 µM): all assays above

B2: FS20-31-102AA/4420 (bispecific antibody, human IgG1, kappa, L234A L235A)
heavy: EVKLDETGGGLVQPGRPMKLSCVASGFTFSDYWMNWVRQSPEKGLEWVAQIRNKPYNYETYYSDSVKGRFTISRDDSKSSVYLQMNNLRVEDMGIYYCTGSYYGMDYWGQGTSVTVSSASTKGPSVFPLAPSSKSTSGGTAALGCLVKDYFPEPVTVSWNSGALTSGVHTFPAVLQSSGLYSLSSVVTVPSSSLGTQTYICNVNHKPSNTKVDKKVEPKSCDKTHTCPPCPAPEAAGGPSVFLFPPKPKDTLMISRTPEVTCVVVDVSHEDPEVKFNWYVDGVEVHNAKTKPREEQYNSTYRVVSVLTVLHQDWLNGKEYKCKVSNKALPAPIEKTISKAKGQPREPQVYTLPPSRDEWASGEVSLTCLVKGFYPSDIAVEWESNGQPEVDYKTTPPVLDSDGSFFLYSKLTVPYWRWGVPRTFSCSVMHEALHNHYTQKSLSLSPG
light: DVVMTQTPLSLPVSLGDQASISCRSSQSLVHSNGNTYLRWYLQKPGQSPKVLIYKVSNRFSGVPDRFSGSGSGTDFTLKISRVEAEDLGVYFCSQSTHVPWTFGGGTKLEIKRTVAAPSVFIFPPSDEQLKSGTASVVCLLNNFYPREAKVQWKVDNALQSGNSQESVTEQDSKDSTYSLSSTLTLSKADYEKHKVYACEVTHQGLSSPVTKSFNRGEC
notes: Human IgG1 with anti-FITC 4420 Fab and LALA; The OX40 site is in the CH3 domain; also called FS20-31-102 Fcab in mock (4420 LALA) mAb^2 format
no binding (tested: 1 µM): all assays above

B3: FS20-31-94AA/4420 (bispecific antibody, human IgG1, kappa, L234A L235A)
heavy: EVKLDETGGGLVQPGRPMKLSCVASGFTFSDYWMNWVRQSPEKGLEWVAQIRNKPYNYETYYSDSVKGRFTISRDDSKSSVYLQMNNLRVEDMGIYYCTGSYYGMDYWGQGTSVTVSSASTKGPSVFPLAPSSKSTSGGTAALGCLVKDYFPEPVTVSWNSGALTSGVHTFPAVLQSSGLYSLSSVVTVPSSSLGTQTYICNVNHKPSNTKVDKKVEPKSCDKTHTCPPCPAPEAAGGPSVFLFPPKPKDTLMISRTPEVTCVVVDVSHEDPEVKFNWYVDGVEVHNAKTKPREEQYNSTYRVVSVLTVLHQDWLNGKEYKCKVSNKALPAPIEKTISKAKGQPREPQVYTLPPSRDEWEHGEVSLTCLVKGFYPSDIAVEWESNGIREHDYKTTPPVLDSDGSFFLYSKLTVPYWRWGGPGTFSCSVMHEALHNHYTQKSLSLSPG
light: DVVMTQTPLSLPVSLGDQASISCRSSQSLVHSNGNTYLRWYLQKPGQSPKVLIYKVSNRFSGVPDRFSGSGSGTDFTLKISRVEAEDLGVYFCSQSTHVPWTFGGGTKLEIKRTVAAPSVFIFPPSDEQLKSGTASVVCLLNNFYPREAKVQWKVDNALQSGNSQESVTEQDSKDSTYSLSSTLTLSKADYEKHKVYACEVTHQGLSSPVTKSFNRGEC
notes: Human IgG1 with anti-FITC 4420 Fab and LALA; also called FS20-31-94 Fcab in mock (4420 LALA) mAb^2 format
no binding (tested: 1 µM): all assays above

B4: FS20-31-108AA/4420 (bispecific antibody, human IgG1, kappa, L234A L235A)
heavy: EVKLDETGGGLVQPGRPMKLSCVASGFTFSDYWMNWVRQSPEKGLEWVAQIRNKPYNYETYYSDSVKGRFTISRDDSKSSVYLQMNNLRVEDMGIYYCTGSYYGMDYWGQGTSVTVSSASTKGPSVFPLAPSSKSTSGGTAALGCLVKDYFPEPVTVSWNSGALTSGVHTFPAVLQSSGLYSLSSVVTVPSSSLGTQTYICNVNHKPSNTKVDKKVEPKSCDKTHTCPPCPAPEAAGGPSVFLFPPKPKDTLMISRTPEVTCVVVDVSHEDPEVKFNWYVDGVEVHNAKTKPREEQYNSTYRVVSVLTVLHQDWLNGKEYKCKVSNKALPAPIEKTISKAKGQPREPQVYTLPPSRDEWASGEVSLTCLVKGFYPSDIAVEWESNGEKEIDYKTTPPVLDSDGSFFLYSKLTVPYWRWGAKRTFSCSVMHEALHNHYTQKSLSLSPG
light: DVVMTQTPLSLPVSLGDQASISCRSSQSLVHSNGNTYLRWYLQKPGQSPKVLIYKVSNRFSGVPDRFSGSGSGTDFTLKISRVEAEDLGVYFCSQSTHVPWTFGGGTKLEIKRTVAAPSVFIFPPSDEQLKSGTASVVCLLNNFYPREAKVQWKVDNALQSGNSQESVTEQDSKDSTYSLSSTLTLSKADYEKHKVYACEVTHQGLSSPVTKSFNRGEC
notes: Human IgG1 with anti-FITC 4420 Fab and LALA; The OX40 site is in the CH3 domain; also called FS20-31-108 Fcab in mock (4420 LALA) mAb^2 format
no binding (tested: 1 µM): all assays above

B5: FS20-22-85AA/4420 (bispecific antibody, human IgG1, kappa, L234A L235A)
heavy: EVKLDETGGGLVQPGRPMKLSCVASGFTFSDYWMNWVRQSPEKGLEWVAQIRNKPYNYETYYSDSVKGRFTISRDDSKSSVYLQMNNLRVEDMGIYYCTGSYYGMDYWGQGTSVTVSSASTKGPSVFPLAPSSKSTSGGTAALGCLVKDYFPEPVTVSWNSGALTSGVHTFPAVLQSSGLYSLSSVVTVPSSSLGTQTYICNVNHKPSNTKVDKKVEPKSCDKTHTCPPCPAPEAAGGPSVFLFPPKPKDTLMISRTPEVTCVVVDVSHEDPEVKFNWYVDGVEVHNAKTKPREEQYNSTYRVVSVLTVLHQDWLNGKEYKCKVSNKALPAPIEKTISKAKGQPREPQVYTLPPSRDEYWDQEVSLTCLVKGFYPSDIAVEWESNGDEQFAYKTTPPVLDSDGSFFLYSKLTLDQYRWNPFDDFSCSVMHEALHNHYTQKSLSLSPG
light: DVVMTQTPLSLPVSLGDQASISCRSSQSLVHSNGNTYLRWYLQKPGQSPKVLIYKVSNRFSGVPDRFSGSGSGTDFTLKISRVEAEDLGVYFCSQSTHVPWTFGGGTKLEIKRTVAAPSVFIFPPSDEQLKSGTASVVCLLNNFYPREAKVQWKVDNALQSGNSQESVTEQDSKDSTYSLSSTLTLSKADYEKHKVYACEVTHQGLSSPVTKSFNRGEC
notes: Human IgG1 with anti-FITC 4420 Fab and LALA; The OX40 site is in the CH3 domain; also called FS20-22-85 Fcab in mock (4420 LALA) mAb^2 format
no binding (tested: 1 µM): all assays above

B6: FS20-31-115AA/4420 (bispecific antibody, human IgG1, kappa, L234A L235A)
heavy: EVKLDETGGGLVQPGRPMKLSCVASGFTFSDYWMNWVRQSPEKGLEWVAQIRNKPYNYETYYSDSVKGRFTISRDDSKSSVYLQMNNLRVEDMGIYYCTGSYYGMDYWGQGTSVTVSSASTKGPSVFPLAPSSKSTSGGTAALGCLVKDYFPEPVTVSWNSGALTSGVHTFPAVLQSSGLYSLSSVVTVPSSSLGTQTYICNVNHKPSNTKVDKKVEPKSCDKTHTCPPCPAPEAAGGPSVFLFPPKPKDTLMISRTPEVTCVVVDVSHEDPEVKFNWYVDGVEVHNAKTKPREEQYNSTYRVVSVLTVLHQDWLNGKEYKCKVSNKALPAPIEKTISKAKGQPREPQVYTLPPSRDEWASGEVSLTCLVKGFYPSDIAVEWESNGEQEFDYKTTPPVLDSDGSFFLYSKLTVPYWRWGAKRTFSCSVMHEALHNHYTQKSLSLSPG
light: DVVMTQTPLSLPVSLGDQASISCRSSQSLVHSNGNTYLRWYLQKPGQSPKVLIYKVSNRFSGVPDRFSGSGSGTDFTLKISRVEAEDLGVYFCSQSTHVPWTFGGGTKLEIKRTVAAPSVFIFPPSDEQLKSGTASVVCLLNNFYPREAKVQWKVDNALQSGNSQESVTEQDSKDSTYSLSSTLTLSKADYEKHKVYACEVTHQGLSSPVTKSFNRGEC
notes: Human IgG1 with anti-FITC 4420 Fab and LALA; The OX40 site is in the CH3 domain; also called FS20-31-115 Fcab in mock (4420 LALA) mAb^2 format
no binding (tested: 1 µM): all assays above
